From patent CN116836268A

biological target: Cov-S-His (SARS-CoV-2); test: SPR, Biacore T200, antibody captured by anti-mouse Fc, Cov-S-His as analyte

Binder | Kd
S4B3VH-h2+L1C9VK-mIgG2a (antibody, V domains shown) VH: QVQLVQSGAEVKKPGSSVKVSCKASGYIFNSYSIHWVRQAPGQGLEWIGAIYPGNGDTSNSQRFKGKATITADKSASTAYMELSSLRSEDTAVYYCARDGYDDSYGLDYWGQGTTVTVSS VL: DIQLTQSPSTLSASVGDRVTITCRASQNIGGWLAWYQQKPGKAPNLLIYQASTLESGVPSRFSGSGSGTEFTLTISSLQAEDFATYHCQQYSGFPWTFGQGTKVEIKR | 5.76 nM
S4B3VH-h2+S4B3VK-h1-mIgG2a (antibody, V domains shown) VH: QVQLVQSGAEVKKPGSSVKVSCKASGYIFNSYSIHWVRQAPGQGLEWIGAIYPGNGDTSNSQRFKGKATITADKSASTAYMELSSLRSEDTAVYYCARDGYDDSYGLDYWGQGTTVTVSS VL: DIVMTQSPDSLAVSLGERATINCKASQNVGTNVAWYQQKPGQPPKALIYSASYRYSGVPDRFSGSGSGTDFTLTISSLQAEDVAVYFCQQYNSYPLTFGQGTKLEIKR | 23.9 nM
S4B3VH-h2+L1B2VK-mIgG2a (antibody, V domains shown) VH: QVQLVQSGAEVKKPGSSVKVSCKASGYIFNSYSIHWVRQAPGQGLEWIGAIYPGNGDTSNSQRFKGKATITADKSASTAYMELSSLRSEDTAVYYCARDGYDDSYGLDYWGQGTTVTVSS VL: DIQMTQSPSSLSASVGDRVTITCRASQNIHNYLDWYQQKPGKAPKLLIYSASSRETGVPSSFSGSGSGTDFTLTISSLQPEDFATYYCQQFQQIPWTFGQGTKVEIKR | 3.04 nM
S4B3VH-h1+L1B2VK-mIgG2a (antibody, V domains shown) VH: QVQLVQSGAEVKKPGSSVKVSCKASGYIFNSYSIHWVRQAPGQGLEWIGAIYPGNGDTSNSQRFKGRVTITADKSTSTAYMELSSLRSEDTAVYYCARDGYDDSYGLDYWGQGTTVTVSS VL: DIQMTQSPSSLSASVGDRVTITCRASQNIHNYLDWYQQKPGKAPKLLIYSASSRETGVPSSFSGSGSGTDFTLTISSLQPEDFATYYCQQFQQIPWTFGQGTKVEIKR | 2.86 nM
S4B3VH-h1+L1C9VK-mIgG2a (antibody, V domains shown) VH: QVQLVQSGAEVKKPGSSVKVSCKASGYIFNSYSIHWVRQAPGQGLEWIGAIYPGNGDTSNSQRFKGRVTITADKSTSTAYMELSSLRSEDTAVYYCARDGYDDSYGLDYWGQGTTVTVSS VL: DIQLTQSPSTLSASVGDRVTITCRASQNIGGWLAWYQQKPGKAPNLLIYQASTLESGVPSRFSGSGSGTEFTLTISSLQAEDFATYHCQQYSGFPWTFGQGTKVEIKR | 5 nM
S4B3VH-h1+S4B3VK-h1-mIgG2a (antibody, V domains shown) VH: QVQLVQSGAEVKKPGSSVKVSCKASGYIFNSYSIHWVRQAPGQGLEWIGAIYPGNGDTSNSQRFKGRVTITADKSTSTAYMELSSLRSEDTAVYYCARDGYDDSYGLDYWGQGTTVTVSS VL: DIVMTQSPDSLAVSLGERATINCKASQNVGTNVAWYQQKPGQPPKALIYSASYRYSGVPDRFSGSGSGTDFTLTISSLQAEDVAVYFCQQYNSYPLTFGQGTKLEIKR | 14.5 nM
